Measurements taken from paper PMC5674511, “Increase of enzyme activity through specific covalent modification with fragments” (Chemical Science, 2017).

Substrate: CC(=O)N[C@H]1[C@H](Oc2ccc3c(C)cc(=O)oc3c2)O[C@H](CO)[C@@H](O)[C@@H]1O
Experiment: fluorescence, 4MU release, Michaelis-Menten
Format: biochemical, Bacteroides thetaiotaomicron
Settings: unmodified wild-type enzyme
Excerpt: fluorescence, 4MU release, Michaelis-Menten on BtGH84

B1: BtGH84 (Bacteroides thetaiotaomicron VPI-5482) (protein)
chain: QNVSLQPPPQQLIVQNKTIDLPAVYQLNGGEEANPHAVKVLKELLSGKQSSKKGMLISIGEKGDKSVRKYSRQIPDHKEGYYLSVNEKEIVLAGNDERGTYYALQTFAQLLKDGKLPEVEIKDYPSVRYRGVVEGFYGTPWSHQARLSQLKFYGKNKMNTYIYGPKDDPYHSAPNWRLPYPDKEAAQLQELVAVANENEVDFVWAIHPGQDIKWNKEDRDLLLAKFEKMYQLGVRSFAVFFDDISGEGTNPQKQAELLNYIDEKFAQVKPDINQLVMCPTEYNKSWSNPNGNYLTTLGDKLNPSIQIMWTGDRVISDITRDGISWINERIKRPAYIWWNFPVSDYVRDHLLLGPVYGNDTTIAKEMSGFVTNPMEHAESSKIAIYSVASYAWNPAKYDTWQTWKDAIRTILPSAAEELECFAMHNSDLGPNGHGYRREESMDIQPAAERFLKAFKEGKNYDKADFETLQYTFERMKESADILLMNTENKPLIVEITPWVHQFKLTAEMGEEVLKMVEGRNESYFLRKYNHVKALQQQMFYIDQTSNQNPYQPGVKTATRVIKPLIDRTFATVVKFFNQKFNAHLDATTDYMPHKMISNVEQIKNLPLQVKANRVLISPANEVVKWAAGNSVEIELDAIYPGENIQINFGKDAPCTWGRLEISTDGKEWKTVDLKQKESRLSAGLQKAPVKFVRFTNVSDEEQQVYLRQFVLTIEKK
notes: recombinant purified enzyme
B1 was tested, and the Km was 1460 ± 220 µM, the kcat was 67 ± 5 s⁻¹ and the kcat/Km was 46000 ± 5900 M⁻¹ s⁻¹.
